The results in this text go back to publication PMC12499412, “Engineering DNA Origami Captors for TGFβ1 Sequestration to Enhance Tumor Immune Modulation and Therapy”.

The target in series [1] is IFN-γ (human, UniProt P01579 24-166). The experiment in a line: MST; aptamer:protein 1:50; MST: 30 nM Cy5-a'-Apt final with 45 pM (4.5 pM in Fig S3 legend) to 1.5 uM protein, 37 °C, 2 h; specificity MST 5 nM aptamer, 0.25 uM protein; buffer, salt and. Particulars: protein: commercial; chain copies: 2; label: 5'-Cy5; annealed 95 °C 5 min, 4 °C 30 min.
The target of series [2] is TGFβ1 (active, mature) (human, UniProt P01137 279-390). The experiment in a line: MST; 37 °C, 2 h; MST: 30 nM Cy5-a'-Apt final with 45 pM (4.5 pM in Fig S3 legend) to 1.5 uM protein, 37 °C, 2 h; specificity MST 5 nM aptamer, 0.25 uM protein; buffer, salt and. Particulars: protein: commercial; chain copies: 2; label: 5'-Cy5; annealed 95 °C 5 min, 4 °C 30 min.
Chain of TGFβ1 (active, mature) (P01137 279-390): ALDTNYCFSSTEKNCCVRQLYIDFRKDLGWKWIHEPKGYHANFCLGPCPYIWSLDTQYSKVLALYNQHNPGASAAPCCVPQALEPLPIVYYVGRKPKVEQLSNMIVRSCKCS

Chain of IFN-γ (P01579 24-166): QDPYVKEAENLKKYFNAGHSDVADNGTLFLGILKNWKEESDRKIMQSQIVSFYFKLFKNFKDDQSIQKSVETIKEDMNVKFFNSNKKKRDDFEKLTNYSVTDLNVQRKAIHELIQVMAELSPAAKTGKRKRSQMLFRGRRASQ

B1: Cy5-a'-Apt (ssDNA)
DNA: TCGCTCGGCTTCACGAGATTCGTGTCGTTGTGTCCTGTACCCGCCTTGACCAGTCACTCTAGAGCATCCGGACTGTAGATGGAGTGTGGTGTGAAG
modifications: phosphorothioates at A and C bases (positions marked * in Table S3)
Regarding B1, the binding result in series [1] is “no binding”. The Kd in series [2] is 28 nM.
